B4: VIN3VEL RR>AD (R554A R556D), residues 529–603, untagged (domain or fragment, Arabidopsis thaliana, UniProt Q9FIE3 529-603, looked up)
chain: GDKDLGHIVKTIRCLEEEGHIDKSFAEDFLTWYSLRATHREVRVVKIFVETFMEDLSSLGQQLVDTFSESILSKR
modifications: selenomethionine (labelling for phasing, crystals); 13C-15N double-labeled (NMR)
notes: VEL domain of VIN3, Arabidopsis thaliana, Q9FIE3, residues 529-603, R554A R556D; Used for the crystal structure 7O6U and, as 'untagged RR>AD', for NMR; also called VIN3 R554A R556D; VIN3VEL head mutant; source: E. coli BL21(DE3) pRARE2, purified (Ni-NTA, TEV cleavage, SEC); not shown: 6xHis, N-terminal, cleaved

Series [1] deals with the molecule itself. Briefly: SEC-MALS; Superdex200 10/300 GL in PBS with 1 mM DTT; increasing protein concentrations (2 mg/mL unless stated otherwise); self-association. In general terms: SEC sorts molecules by how far they enter the pores of the column.
Series [2] has as its target T1, 6xHisLip-VIN3VEL RR>AD (ITC) (Arabidopsis thaliana, UniProt Q9FIE3 529-603, R554A | R556D).
T1 construct: VEL domain of VIN3, Arabidopsis thaliana, Q9FIE3, R554A R556D; residues 529-603 by the methods' rule for pLipK-VIN3VEL ('unless specified otherwise'); also called VIN3VEL head mutant; source: E. coli BL21(DE3) pRARE2, purified (Ni-NTA, SEC); not shown: 6xHis, N-terminal, kept; lipoyl (Lip) solubility tag, N-terminal, kept
T1 sequence (looked up): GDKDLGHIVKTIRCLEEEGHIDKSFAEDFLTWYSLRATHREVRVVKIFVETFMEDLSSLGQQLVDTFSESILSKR
Briefly: ITC; 25°C; 1 mM 6xHisLip-VIN3VEL I575D injected into 100 μM 6xHisLip-VIN3VEL RR>AD; 25 mM Tris pH 7.4, 200 mM NaCl, 0.5 mM DTT, 0.06% NaN3; head-to-tail interface between a head mutant and a tail mutant. The settings on record: both partners purified.

Series [3] concerns the molecule itself. The series can be described thus: crystal structure; untagged VEL domains bearing polymerization-deficient point mutations, 4–25 mg/mL, sitting-drop vapor diffusion at 18°C; SAD with selenomethionine.
The target in series [4] is B4. Briefly: NMR titration; 300 μM 13C-15N VEL RR>AD with 100 μM unlabeled VEL I575D; peak heights in 1H-15N fast-HSQC spectra; 25 mM phosphate pH 6.7, 150 mM NaCl, 283 K. Particulars: both partners purified.

B1: Lip-VEL1VEL (residues 589–692), wild type (domain or fragment, Arabidopsis thaliana, UniProt Q9SUM4 589-692, looked up)
chain: SDEIKNRQARIEISMKDNCNNGDHSANGGTESGLEHCVKIIRQLECSGHIDKNFRQKFLTWYSLRATSQEIRVVKIFIDTFIDDPMALAEQLIDTFDDRVSIKR
notes: VEL domain of VEL1, Arabidopsis thaliana, Q9SUM4, residues 589-692; source: E. coli BL21(DE3) pRARE2, purified (Ni-NTA, SEC); not shown: lipoyl (Lip) solubility tag, N-terminal, kept
Regarding B1, the “stoichiometry N” value in series [1] is > 20 -mer.

B2: 6xHisLip-VIN3VEL I575D (ITC) (domain or fragment, Arabidopsis thaliana, UniProt Q9FIE3 529-603, looked up)
chain: GDKDLGHIVKTIRCLEEEGHIDKSFRERFLTWYSLRATHREVRVVKDFVETFMEDLSSLGQQLVDTFSESILSKR
notes: VEL domain of VIN3, Arabidopsis thaliana, Q9FIE3, I575D; residues 529-603 by the methods' rule for pLipK-VIN3VEL ('unless specified otherwise'); also called VIN3VEL tail mutant; source: E. coli BL21(DE3) pRARE2, purified (Ni-NTA, SEC); not shown: 6xHis, N-terminal, kept; lipoyl (Lip) solubility tag, N-terminal, kept
For orientation: Kd means the concentration at which binding is half-saturated. Read a low Kd as higher affinity. Consider B2, for which binding in series [2] was characterised by a dissociation constant (Kd) of 1160 nM.

B3: VIN3VEL I575D, untagged (domain or fragment, Arabidopsis thaliana, UniProt Q9FIE3 529-603, looked up)
chain: GDKDLGHIVKTIRCLEEEGHIDKSFRERFLTWYSLRATHREVRVVKDFVETFMEDLSSLGQQLVDTFSESILSKR
modifications: selenomethionine (labelling for phasing, crystals)
notes: VEL domain of VIN3, Arabidopsis thaliana, Q9FIE3, I575D; also called VIN3 I575D; VIN3VEL tail mutant; source: E. coli BL21(DE3) pRARE2, purified (Ni-NTA, TEV cleavage, SEC); not shown: 6xHis, N-terminal, cleaved
For the molecule B3, the binding result in series [3] and in series [4] was “binds” each time.

As for B4, the binding result in series [3] is “binds”.

B5: Lip-VIN3VEL (residues 500–603), wild type (domain or fragment, Arabidopsis thaliana, UniProt Q9FIE3 500-603, looked up)
chain: GKQGGNKRFKSRTVSLNEKPEINNAANGVGDKDLGHIVKTIRCLEEEGHIDKSFRERFLTWYSLRATHREVRVVKIFVETFMEDLSSLGQQLVDTFSESILSKR
notes: VEL domain of VIN3, Arabidopsis thaliana, Q9FIE3, residues 500-603; also called WT domain; source: E. coli BL21(DE3) pRARE2, purified (Ni-NTA, SEC); not shown: lipoyl (Lip) solubility tag, N-terminal, kept
As for B5, the “stoichiometry N” value in series [1] is ~9 -mer.

B6: VEL1VEL I664D, residues 616–692, untagged (domain or fragment, Arabidopsis thaliana, UniProt Q9SUM4 616-692, looked up)
chain: GGTESGLEHCVKIIRQLECSGHIDKNFRQKFLTWYSLRATSQEIRVVKDFIDTFIDDPMALAEQLIDTFDDRVSIKR
modifications: selenomethionine (labelling for phasing)
notes: VEL domain of VEL1, Arabidopsis thaliana, Q9SUM4, residues 616-692, I664D; also called VEL1 I664D; source: E. coli BL21(DE3) pRARE2, purified (Ni-NTA, TEV cleavage, SEC); not shown: 6xHis, N-terminal, cleaved
B6: in series [3], the binding result was “binds”.

The values are drawn from publication PMC7614096, “Head-to-tail polymerization by VEL proteins underpins cold-induced Polycomb silencing in flowering control” (Cell Reports, 2022).
